Assay results taken from US20260209352A1 (Adimab, published 2026).
Residue numbers refer to the chain shown, from its start.

B1: ADI-42594 (antibody, V domains shown)
VH: QVQLVQSGAEVKKPGASVKVSCKASGFNIKDYYMHWVRQAPGQRLEWIGWIDLENANTVYDAKFQGRVTITRDTSASTAYMELSSLRSEDTAVYYCARDAYGRYFYDVWGQGTLVTVSS
VL: DIVMTQSPDSLAVSLGERATINCKSSQSLLNARTGKNYLAWYQQKPGQPPKLLIYWASTRESGVPDRFSGSGSGTDFTLTISSLQAEDVAVYYCKQSYFRRTFGGGTKVEIK
notes: also called Ab1
B2: ADI-45985 (antibody, V domains shown)
VH: B1 VH
VL: B1 VL with S25T, G35N, K95V
notes: also called Ab22
B3: ADI-45972 (antibody, V domains shown)
VH: B1 VH with K13R
VL: B1 VL with K95V
notes: also called Ab8
B4: ADI-45973 (antibody, V domains shown)
VH: B1 VH with G8E
VL: B1 VL
notes: also called Ab9
B5: ADI-46357 (antibody, V domains shown)
VH: B1 VH
VL: B1 VL with K95A
notes: also called Ab30
B6: ADI-45981 (antibody, V domains shown)
VH: B1 VH
VL: B1 VL with T59M, G72R, K95S
notes: also called Ab18
B7: ADI-42596 (antibody, V domains shown)
VH: B1 VH
VL: B1 VL with G35R
notes: also called Ab2
B8: ADI-45982 (antibody, V domains shown)
VH: B1 VH
VL: B1 VL with S62N, K95T
notes: also called Ab19
B9: ADI-45975 (antibody, V domains shown)
VH: B1 VH with R103Q
VL: B1 VL with G35R
notes: also called Ab11
B10: ADI-45984 (antibody, V domains shown)
VH: B1 VH
VL: B1 VL with G35R, K95V
notes: also called Ab21
B11: ADI-45977 (antibody, V domains shown)
VH: B1 VH with F64L, R87G
VL: B1 VL with K95T
notes: also called Ab14
B12: ADI-46359 (antibody, V domains shown)
VH: B1 VH with R103Q
VL: B1 VL with K95T
notes: also called Ab42
B13: ADI-45980 (antibody, V domains shown)
VH: B1 VH with S84N
VL: B1 VL with S58F, K95T
notes: also called Ab17
B14: ADI-45971 (antibody, V domains shown)
VH: B1 VH with S17T, M34I
VL: B1 VL with G35R, K95V
notes: also called Ab7
B15: ADI-45974 (antibody, V domains shown)
VH: B1 VH with S85N
VL: B1 VL
notes: also called Ab10
B16: ADI-45959 (antibody, V domains shown)
VH: B1 VH
VL: B1 VL with T5S, E61S, K95V
notes: also called Ab13
B17: ADI-45976 (antibody, V domains shown)
VH: B1 VH with A97V
VL: B1 VL with K95V
notes: also called Ab12
B18: ADI-45978 (antibody, V domains shown)
VH: B1 VH with I48L
VL: B1 VL with T59A, K95T
notes: also called Ab15
B19: ADI-46366 (antibody, V domains shown)
VH: B1 VH with R103Q
VL: B1 VL with K95V
notes: also called Ab50
B20: ADI-46378 (antibody, V domains shown)
VH: B1 VH with T78A
VL: B1 VL with G35R, Q48R, K95V
notes: also called Ab40
B21: ADI-45979 (antibody, V domains shown)
VH: B1 VH
VL: B1 VL with S28E
notes: also called Ab16
B22: ADI-45983 (antibody, V domains shown)
VH: B1 VH with S77G
VL: B1 VL with G35M, W56A, K95A
notes: also called Ab20

How the values were obtained:
[1] = target: Cyno CD3εδ-Fc (cynomolgus) (UniProt Q95LI8); assay: KD of scFv-Fc or IgG on cyno CD3εδ-Fc; instrument not given
Cyno CD3εδ-Fc (cynomolgus), sequence (chain, as listed by the source mutant, chain 1 of 2): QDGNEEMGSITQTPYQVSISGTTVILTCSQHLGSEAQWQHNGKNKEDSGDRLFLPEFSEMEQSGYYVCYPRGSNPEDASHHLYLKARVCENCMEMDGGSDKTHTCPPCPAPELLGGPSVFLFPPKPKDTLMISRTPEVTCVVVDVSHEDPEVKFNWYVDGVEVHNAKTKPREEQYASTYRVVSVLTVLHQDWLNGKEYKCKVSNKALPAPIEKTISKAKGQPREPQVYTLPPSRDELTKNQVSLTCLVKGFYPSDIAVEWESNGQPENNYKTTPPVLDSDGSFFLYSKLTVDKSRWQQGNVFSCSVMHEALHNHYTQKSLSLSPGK
Cyno CD3εδ-Fc (cynomolgus), sequence (Q95LI8 22-105, stated change not applied, chain 2 of 2): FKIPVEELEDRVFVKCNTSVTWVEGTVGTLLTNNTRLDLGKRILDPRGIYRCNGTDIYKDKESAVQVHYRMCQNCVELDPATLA

[2] = target: T1, Human CD3 on Human CD3+ Jurkat cells (human, UniProt P07766 23-207); assay: cell binding, human CD3+ Jurkat cells
T1 construct: whole, on cells; CD3 complex on cells; also called hCD3
T1 sequence (P07766 23-207): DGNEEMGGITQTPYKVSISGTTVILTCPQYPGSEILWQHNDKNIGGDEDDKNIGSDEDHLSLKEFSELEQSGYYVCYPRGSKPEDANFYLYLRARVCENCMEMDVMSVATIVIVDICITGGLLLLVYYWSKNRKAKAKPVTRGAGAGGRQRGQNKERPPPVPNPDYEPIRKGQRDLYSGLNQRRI

[3] = target: T2, Cynomolgus CD3 on Cyno CD3+ Jurkat cells (cynomolgus, UniProt Q95LI5 22-198); assay: cell binding cCD3, fold over background
T2 construct: whole, on cells; CD3 on cells; also called cCD3
T2 sequence (Q95LI5 22-198): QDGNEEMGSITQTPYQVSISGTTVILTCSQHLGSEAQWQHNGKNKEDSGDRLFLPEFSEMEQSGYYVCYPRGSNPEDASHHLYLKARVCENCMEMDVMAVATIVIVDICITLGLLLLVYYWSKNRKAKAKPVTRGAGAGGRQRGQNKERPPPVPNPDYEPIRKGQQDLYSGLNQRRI

[4] = target: T2, Cynomolgus CD3 on Cyno CD3+ Jurkat cells; assay: cell binding, cyno CD3+ Jurkat cells
[5] = target: T1, Human CD3 on Human CD3+ Jurkat cells; assay: cell binding hCD3, fold over background
Human CD3εδ-Fc (human) [6] = target: Human CD3εδ-Fc (human) (UniProt P04234); assay: Biacore SPR, monovalent KD, biotinylated human CD3εδ-Fc
Human CD3εδ-Fc (human), sequence (chain, as listed by the source mutant, chain 1 of 2): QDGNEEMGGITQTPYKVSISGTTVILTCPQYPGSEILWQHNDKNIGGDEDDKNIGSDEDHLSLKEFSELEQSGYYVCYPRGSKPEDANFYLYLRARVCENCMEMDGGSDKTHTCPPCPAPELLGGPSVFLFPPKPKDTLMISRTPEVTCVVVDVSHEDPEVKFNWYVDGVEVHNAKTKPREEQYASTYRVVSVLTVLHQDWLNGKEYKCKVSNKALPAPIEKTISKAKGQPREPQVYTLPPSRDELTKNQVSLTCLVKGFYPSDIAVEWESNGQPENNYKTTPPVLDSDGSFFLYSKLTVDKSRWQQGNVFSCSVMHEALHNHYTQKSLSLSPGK
Human CD3εδ-Fc (human), sequence (P04234 22-105, stated change not applied, chain 2 of 2): as the sequence (Q95LI8 22-105, stated change not applied, chain 2 of 2) above, with V5I, K15N, V20I, T32S, N33D, N34I, A64T, N74S, L83V counted along it

Human CD3εδ-Fc (human) [7] = target: Human CD3εδ-Fc (human) (UniProt P04234); assay: KD of scFv-Fc or IgG on human CD3εδ-Fc; instrument not given
Human CD3εδ-Fc (human) [8] = target: Human CD3εδ-Fc (human) (UniProt P04234); assay: KD of scFv-Fc or IgG on human CD3εδ-Fc; instrument not given; second row for this clone

Binder | Kd [1] | Cell Binding Fold Over Background (FOB) [2] | Cell Binding cCD3 (FOB) [3] | Cell Binding Fold Over Background (FOB) [4] | Cell Binding hCD3 (FOB) [5] | Kd (Human CD3εδ-Fc (human) [6]) | Kd (Human CD3εδ-Fc (human) [7]) | Kd (Human CD3εδ-Fc (human) [8])
B1 | 2 nM | 14 FOB | 122 FOB | 16 FOB | 36 FOB | 0.47 nM | 0.2 nM | –
B2 | 1.2 nM | – | 23 FOB | – | 21 FOB | – | 0.08 nM | –
B3 | 1.4 nM | – | 45 FOB | – | 32 FOB | – | 0.081 nM | –
B4 | 1.8 nM | – | 91 FOB | – | 55 FOB | – | 0.16 nM | –
B5 | – | 13 FOB | 80 FOB | 20 FOB | 24 FOB | 0.25 nM | 0.97 nM | –
B6 | 1.6 nM | – | 78 FOB | – | 33 FOB | – | 0.089 nM | –
B7 | 2.4 nM | – | 46 FOB | – | 29 FOB | – | 0.16 nM | 1.1 nM
B8 | 1.4 nM | – | 31 FOB | – | 24 FOB | – | 0.12 nM | –
B9 | 1.4 nM | 10 FOB | 142 FOB | 17 FOB | 86 FOB | 0.21 nM | 0.067 nM | –
B10 | 1.3 nM | – | 92 FOB | – | 88 FOB | – | 0.095 nM | –
B11 | 1.1 nM | – | 159 FOB | – | 59 FOB | – | 0.091 nM | –
B12 | – | 15 FOB | 102 FOB | 28 FOB | 43 FOB | 0.22 nM | 0.89 nM | –
B13 | 1.2 nM | – | 85 FOB | – | 8 FOB | – | 0.08 nM | –
B14 | 1.9 nM | – | 20 FOB | – | 21 FOB | – | 0.11 nM | –
B15 | 2.1 nM | – | 67 FOB | – | 47 FOB | – | 0.19 nM | –
B16 | 1.7 nM | 18 FOB | 112 FOB | 30 FOB | 19 FOB | 0.12 nM | 0.13 nM | –
B17 | 1.8 nM | – | 109 FOB | – | 45 FOB | – | 0.12 nM | –
B18 | 1.2 nM | – | 37 FOB | – | 25 FOB | – | 0.074 nM | –
B19 | – | 16 FOB | 108 FOB | 32 FOB | 43 FOB | 0.23 nM | 0.93 nM | –
B20 | – | 17 FOB | 91 FOB | 30 FOB | 22 FOB | 0.12 nM | 0.92 nM | –
B21 | 1.7 nM | – | 72 FOB | – | 54 FOB | – | 0.19 nM | –
B22 | 2 nM | – | 101 FOB | – | 24 FOB | – | 0.23 nM | –
